The text below walks through data of patent US20180186897A1 (INSTITUTE FOR RESEARCH IN BIOMEDICINE, published 2018).

Holding throughout (assay): flow cytometry, staining of IEs
(A flow cytometer gives signals particle by particle.)

Experiment [1] has as its target erythrocytes infected with P. falciparum field isolate 9775.
Experiment [2] concerns the target erythrocytes infected with P. falciparum field isolate 11014.
Experiment [3] concerns the target erythrocytes infected with P. falciparum field isolate 10936.
Experiment [4] addresses erythrocytes infected with P. falciparum field isolate 9215.
For experiment [5], the target named is erythrocytes infected with P. falciparum field isolate 11019.
For experiment [6], the target named is erythrocytes infected with P. falciparum field isolate 9106.
The target in experiment [7] is erythrocytes infected with P. falciparum field isolate 10975.
The target in experiment [8] is erythrocytes infected with P. falciparum field isolate 9605.

B1: MGD47 (antibody)
VH: QVRLQESGPGLVKPSGTLSLTCTVSGGSISGYKWWSWVRQAPGKGLEWIGQVYDDGDTNYNPDLKGRVALSVDKSKSRFSLSLASVTAADTAIYFCATISPLRPQSDTGDLPRPSISAEPGTAIPLGSQVTFVCRGPIGVQTFRLERESRALYNDSEDVSQVSPSASEARFRIDSVSEGNAGPYRCIYYKARRWSDQSDYLELLVKGEDVTWALPQSQLAPRACPQEDLNISTDIFSTNVWGKGTTVTVSS
VL: AIRMTQSPASLSASVGDRVTITCRTSQDVGNYLDWYQQKPGKAPKLLIHGASTLQAGVPSRFNGSGSGTDFTLGISCVQSGDFAIYYCQQYYTSPPVFGQGTRLEIK
As for B1, the % parasite recognition in experiment [1] was 14.4%; in experiment [2] it was 10.2%; in experiment [3] it was 11.3%; in experiment [4], 22.3%; in experiment [5] it was 24.6%; in experiment [6] it was 10.7%. Further, the values for the % parasite recognition in experiment [7] and in experiment [8] were 11.2% and 28.7%, respectively.

B2: MGC28 (antibody)
VH: EVQLVESGGGLVQPGGSLRLSCEASGFTFSSYWMTWVRQAPGKGLEWVANINQDGSERYYVDSVKGRFTISRDTVKNSLYLQMNNLRAEDTAVYYCARQRFCSDGSLFHGEDLPRPTISAETGTVISLGSHVTFVCRGPLGVQTFRLERESRSRYSETEDVSQVGPSESEARFRIDSVSEGNAGLYRCIYYKPPKWSEQSDYLELRVKGEDVTWALLTYCGGDRDESDYYMDVWGKGTTVTVSS
VL: QTVVTQEPSLTVSPGGTVTLTCASSTGSVTSGSFPNWFQQTPGQAPRSLIYSTTKKHSWTPARFSGSLLGGKAALTVSDTQPEDEAEYYCLLYCGGGQPWVFGGGTKLTVL
Consider B2, for which the % parasite recognition in experiment [1] was found to be 9.8%; in experiment [2] it was 2.8%; in experiment [3], 3%; in experiment [4] it was 10.8%; in experiment [5], 30%; in experiment [6] it was 7.5%. The % parasite recognition worked out at 12.3% in experiment [7] and 20.9% in experiment [8].

B3: MGD41 (antibody)
VH: EVQLVESGPGLVKPSGTLSVTCTISGGSINTDKWWTWVRQPPGKGLEWVGEVLHTGSTNYNPSLRGRVTISVDKSKNQFSLRLSSVTAADTAVYYCATISTLRPQRDIEDLPRPSLSAEPGTVVPLGSHVTFVCRGPVGVQTFRLERESRSTYNDTEDVSQPSPFESEARFRIDSVSEGNAGPYRCIYYKSPKWSDQSDYVELLVKGEDVTWAPPQSQLAPRACPQGELRTSTDIFSMNVWGKGTTVTVSS
VL: AIRMTQSPSSLSAFTGDRVTISCRASQDIGNYLDWYHQKPGRAPKLLIHGASTLLTGVPSRFSGSGSGTDFTLNITCLQSGDFGIYYCLQYYSSPPAFGPGTRLEIK
Take B3: the % parasite recognition in experiment [1] was 8.6%; in experiment [2] it was 6.6%; in experiment [3], 6.1%; in experiment [4] it was 14.7%; in experiment [5] it was 6.8%; in experiment [6], 3.8%. Moreover, the % parasite recognition was determined as 7.3% in experiment [7] and 17.2% in experiment [8].

B4: MGC7 (antibody)
VH: EVQLVESGGDLVQPGGSLRLSCAASGFTFRNYWMSWVRQTPGKGLEWVANIRQDGSEKYYVDSVKGRFTISRDNAKNLLYLQMNSLRAEDTAVYYCVRDKFCSDENHMHVADDLPRPSISPEPGTVIPLGSHVTFVCRGPVGVQTFRLEKDRRSTYNDTEDVSQPSPSESEARFRIDSVTEGNAGLYRCVYYKPPKWSDQSDFLELLVKGEDVTWALFPHCGADGEDSDYYMDVWGKGTTVTVSS
VL: DIQMTQSPSSVSASVGDRVTITCRASQGLSTWLAWYQQKPGKAPKILIYAASSLQSGVPSRFSGSGSGTDFTLTISSLQPEDFATYYCQQANSFPLTFGGGTKVEIK
For the molecule B4, the % parasite recognition in experiment [1] is 4.6%; in experiment [2], 2.9%; in experiment [3], 1.7%; in experiment [4], 19.3%; in experiment [5], 13.8%; in experiment [6] it was 6.9%. Also, the % parasite recognition in experiment [7] amounted to 0.7%; in experiment [8], 22.8%.

B5: MGD39 (antibody)
VH: QVRLQESGPGLVKPSGTLSLTCTVSGGSISAYRWWSWVRQAPGKGLEWIGQVYNDGNTNYNPSLKGRVAMSVDKSKNRFSLRLASVTAADTAVYYCATISPLRPQSDTDDLPRPSISAEPGTVIPLGSHVTFVCRGPIGVQTFRLERERRSLYSDTEDVSQVSPFASEARFRIDSVSEGNAGPYRCIYYKDRKWSDQSDYLELLVKGEDVTWALPQSQLAPRACPQEELNISTDIFSMNVWGKGTTVTVSS
VL: AIRMTQSPASLSASIGDRVTITCRTSHDVGNYLDWYQQKPGKAPKLLIHGASTLQTGVPSRFSGSGAGTDFTLNITCLQSGDFAMYYCQQYYSSPPGFGQGTRLEIK
Consider B5, for which the % parasite recognition in experiment [1] is 15%; in experiment [2], 11.5%; in experiment [3], 10.5%; in experiment [4] it was 37.4%; in experiment [5], 43%; in experiment [6], 13.7%. Also, the % parasite recognition in experiment [7] is 14.1%; in experiment [8], 31.7%.

B6: MGD55 (antibody)
VH: QVQLQESGPGLVKPSGTLSLTCTVSGGSISAYKWWSWVRQAPGKGLEWIGQVYHNGNTNYNPSLKGRVAMSVDKSKNRFSLRLASVTAADTAVYYCATISPLRPQSDTDDLPRPSISAEPGTVIPLGSHVTFVCRGPIGVQTFRLERESRSLYSDTEDVSQVSPFASEARFRIDSVSEGNAGPYRCIYYKDRKWSDQSDYLELLVKGEDVTWALPQSQLAPRACPQEELNISTDIFSMNVWGKGTTVTVSS
VL: AIRMTQSPASLSASIGDRVTITCRTSQDVGNYLDWYQQKPGKAPKLLIHGASTLQTGVPSRFSGSGAGTDFTLNITCLQSGDFAMYYCQQYYSSPPGFGQGTRLEIK
As to B6, the % parasite recognition was 19.4% in experiment [1]; 14.7% in experiment [2]; 13.3% in experiment [3]; 38.8% in experiment [4]; 33.1% in experiment [5]; 14.3% in experiment [6]. The % parasite recognition in experiment [7] worked out at 15.6%; in experiment [8], 37.2%.

B7: MGC26 (antibody)
VH: EVQLVDSGGGLVQPGGSLRLSCAASGFTFSTYWMTWVRQTPGKGLEWVASIKQDGTERYYVDSVKGRFIISRDNAKNSLYLQMHSLRAEDTAVYYCVRDRFCRDHMHIEEDLPRPSISPEPATVIPLGSHVTIVCRGPVGVETFRLQKESRSLYNDTEDVSQPSPSESEARFRIDSVSEGHGGLYRCLYYKSSKWSEQSDYLEMLVKGEDVTWALFPYCGGDGEESDYYMDVWGKGTTVTVSS
VL: DIQLTQSPSTLSASVGDRVTISCRASQRLSRSLAWYQQRPRKAPNLLIYKASPLEIGGPSRFTGSGSGTEFTLTISSLQPDDSATYYCQQYSNYSYSFGQGTKLEIR
On to B7, for which the % parasite recognition was found to be 3.4% in experiment [1]; 5.4% in experiment [2]; 3.6% in experiment [3]; 9.5% in experiment [4]; 50.8% in experiment [5]; 8.5% in experiment [6]. Besides, the % parasite recognition was determined as 7.3% in experiment [7] and 21.1% in experiment [8].

B8: MGD56 (antibody)
VH: QVQLQESGPGLVKPSGTLSLTCAVSGGSITTNNWWSWVRQTPGKGLEWIGEIFRSGTTNYNPSLKSRVAISLDKSKNQFSLKLTSVTAADTAVYYCATASPFKSQRDTKDLPRPSLSAEPGTVIPLGSHVTFVCRGPVGVQTFRLQRESRSLYNDTEDVSHPSPSESEARFRIDSVSEGNAGPYRCVYYKSSKWSEESDCLELLVKTEDVTWARPQPQLDPRACPRGDLRISTDVYYMDVWGKGTTVTVSS
VL: AIRMTQSPSSLSASTGDRVTITCRASQAITSYLAWYRQKPGKAPDLLIYNASTLQSGVPSRFSASGSGTDFALTITGLQSEDFVIYFCQHYYTYPPAFGQGTRLEIK
Take B8: the % parasite recognition in experiment [1] stood at 6.6%; in experiment [2], 9.5%; in experiment [3], 2.4%; in experiment [4], 12%; in experiment [5], 4.3%; in experiment [6], 3.3%. In addition, the % parasite recognition came out at 6.7% in experiment [7] and 17.3% in experiment [8].

B9: MGC4 (antibody)
VH: EVQLVESGGGLVQPGGSLRLSCEGSGFNSRSYWMTWVRQAPGKGLEWVASINQDGTEKNYVDSVKGRFTISRDSAKNSLYLQMSSLRADDTAVYYCARDRFCGGESHLHGEEDLPRPSISAEPDTVIPLGSHVTFVCRGPVGVHTFRLERGWRYNDTEDVSQAGPSESEARFRIDSVREGNAGLYRCIYYIAPKWSEQSDYLELRVKGGDVTWALLTYCGGDGEESDYPMDVWGKGTTVTVSS
VL: QTVVTQEPSLTVSPGGTVTLTCASSTGPVTSAYYPNWFQQKPGQAPRSLIYSINKKHSWTPARFSGSLLGGKAALTLSGVQPEDEADYYCLLSCGGAQPWVFGGGTKLTVQ
B9: the % parasite recognition in experiment [1] came out at 6.1%; in experiment [2] it was 3.6%; in experiment [3] it was 2.3%; in experiment [4] it was 21.7%; in experiment [5], 31.1%; in experiment [6], 6.7%. For the same molecule, the % parasite recognition in experiment [7] is 6.7%; in experiment [8] it was 22.2%.

B10: MGC17 (antibody)
VH: EVQLVESGGGLVQPGGSLKLSCVASGFNFRKSWMSWVRQAPGKGLEWVANIREDGSKAYYVDSVKGRFTVSRDNAKNSLYLQINSLRADDTAVYYCARDRFCSDDEDHSHGAEDLPRPSISAEEGTVIPLGSRLTFVCRGPVGVHTFRLERDRRSTYNDTEDVSHPSPSESEARFRIDSVSEGNAGLYRCVYYKSPEWSKQSDYLELLVKGQEVTWALFTSCGGDGEVPDYDMDVRGKGTTVTVSS
VL: DIVMTQSPDSLAVSLGERATINCKSSQSVLYRSKNKKYLAWFQQRPGQPPKVLIYWTSTRASGVPDRFSGSGSGTDFTLTISSLQADDVAVYYCQQYFIFPYTFGQGTKLEIR
As to B10, the % parasite recognition in experiment [1] was 2.5%; in experiment [2], 1.6%; in experiment [3] it was 2.4%; in experiment [4] it was 16.7%; in experiment [5], 7.1%; in experiment [6] it was 1.3%. In addition, the % parasite recognition was 1.5% in experiment [7] and 6.8% in experiment [8].
